Consider 6 variants from IntAct's records for PubMed 16369487.

The chains are these.
B1: SPRY domain-containing SOCS box protein 2 (Mus musculus), O88838 (parent)
chain: MGQTALARGSSSTPTSQALYSDFSPPEGLEELLSAPPPDLVAQRHHGWNPKDCSENIDVKEGGLCFERRPVAQSTDGVRGKRGYSRGLHAWEISWPLEQRGTHAVVGVATALAPLQADHYAALLGSNSESWGWDIGRGKLYHQSKGLEAPQYPAGPQGEQLVVPERLLVVLDMEEGTLGYSIGGTYLGPAFRGLKGRTLYPSVSAVWGQCQVRIRYMGERRVEEPQSLLHLSRLCVRHALGDTRLGQISTLPLPPAMKRYLLYK
partner: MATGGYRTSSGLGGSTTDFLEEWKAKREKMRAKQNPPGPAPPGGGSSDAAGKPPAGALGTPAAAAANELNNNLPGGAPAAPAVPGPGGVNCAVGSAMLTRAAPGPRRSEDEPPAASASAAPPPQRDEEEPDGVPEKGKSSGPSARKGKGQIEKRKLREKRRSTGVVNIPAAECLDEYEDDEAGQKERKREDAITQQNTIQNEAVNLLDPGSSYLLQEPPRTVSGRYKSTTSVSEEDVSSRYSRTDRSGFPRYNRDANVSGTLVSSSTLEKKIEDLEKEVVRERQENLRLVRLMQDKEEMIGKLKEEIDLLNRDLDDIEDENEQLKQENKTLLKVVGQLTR

This assay covers variants of B1. The settings on record: with pawr_human PAWR.
As to MGQTALARGSSSTPTSQALYSDFSPPEGLEELLSAPPPDLVAQRHHGWNPKDCSENIDVKEGGLCFERRPVAQSTDGVRGKRGYSRGLHAWEISWPLEQRGTHAVVGVATALAPLQADHYAALLGSNSESWGWDIGRGKLYHQSKGLEAPAAPAGPQGEQLVVPERLLVVLDMEEGTLGYSIGGTYLGPAFRGLKGRTLYPSVSAVWGQCQVRIRYMGERRVEEPQSLLHLSRLCVRHALGDTRLGQISTLPLPPAMKRYLLYK [Q151A;Y152A], the “effect of a mutation on the interaction” value was “disrupting interaction strength”.

For the variant MGQTALARGSSSTPTSQALYSDFSPPEGLEELLSAPPPDLVAQRHHGWNPKDCSENIDVKEGGLCFERRPVAQSTDGVRGKRGYSRGLHAWEISWPLEQRGTHAVVGVATALAPLQADHYAALLGSNSESWGWDIGRGKLYHQSKGLEAPQYPAGPQGEQLVVPERLLVVLDMEEGTLGYSIGGTYLGPAFRGLKGRTLYPSVSAAWGQCQVRIRYMGERRVEEPQSLLHLSRLCVRHALGDTRLGQISTLPLPPAMKRYLLYK [V206A], the “effect of a mutation on the interaction” value was “disrupting interaction”.

As for MGQTALARGSSSTPTSQALYSDFSPPEGLEELLSAPPPDLVAQRHHGWNPKDCSENIDVKEGGLCFERRPVAQSTDGVRGKRGYSRGLHAWEISWPLEQRGTHAVVGVATALAPLQADHAAALLGSNSESWGWDIGRGKLYHQSKGLEAPQYPAGPQGEQLVVPERLLVVLDMEEGTLGYSIGGTYLGPAFRGLKGRTLYPSVSAVWGQCQVRIRYMGERRVEEPQSLLHLSRLCVRHALGDTRLGQISTLPLPPAMKRYLLYK [Y120A], the “effect of a mutation on the interaction” value was “disrupting interaction”.

MGQTALARGSSSTPTSQALYSDFSPPEGLEELLSAPPPDLVAQRHHGWNPKDCSENIDVKEGGLCFERRPVAQSTDGVRGKRGYSRGLHAWEISWPLEQRGTHAVVGVATALAPLQADHYAALLGSNSESWGWDIGRGKLAAASKGLEAPQYPAGPQGEQLVVPERLLVVLDMEEGTLGYSIGGTYLGPAFRGLKGRTLYPSVSAVWGQCQVRIRYMGERRVEEPQSLLHLSRLCVRHALGDTRLGQISTLPLPPAMKRYLLYK [Y141A;H142A;Q143A]: the “effect of a mutation on the interaction” value is recorded as “disrupting interaction strength”.

Consider MGQTALARGSSSTPTSQALYSDFSPPEGLEELLSAPPPDLVAQRHHGWNPKDCSENIDVKEGGLCFERRPVAQSTDGVRGKRGYSRGLHAWEISWPLEQRGTHAVVGVATALAPLQADHYAALLGSNSESWGWDIGRGKLYHQSKGLEAPQYPAGPQGEQLVVPERLLVVLDMEEGTLGYSIGGTYLAAAFRGLKGRTLYPSVSAVWGQCQVRIRYMGERRVEEPQSLLHLSRLCVRHALGDTRLGQISTLPLPPAMKRYLLYK [G188A;P189A], for which the “effect of a mutation on the interaction” value is recorded as “disrupting interaction strength”.

MGQTALARGSSSTPTSQALYSDFSPPEGLEELLSAPPPDLVAQRHHGWNPKDCSENIDVKEGGLCFERRPVAQSTDGVRGKRGYSRGLHAWEISWPLEQRGTHAVVGVATALAPLQADHYAAAAASNSESWGWDIGRGKLYHQSKGLEAPQYPAGPQGEQLVVPERLLVVLDMEEGTLGYSIGGTYLGPAFRGLKGRTLYPSVSAVWGQCQVRIRYMGERRVEEPQSLLHLSRLCVRHALGDTRLGQISTLPLPPAMKRYLLYK [L123A;L124A;G125A]: the “effect of a mutation on the interaction” value is “disrupting interaction strength”.
